Test [1] has as its target T1, Human α-tubulin (TUBA1B) (human, UniProt P68363 1-451). The experiment in a line: native gel or EMSA. A general note: A gel shift assay detects complexes by their altered migration in electrophoresis.
The target of test [2] is T1, Human α-tubulin (TUBA1B). The experiment in a line: cross-linking.
Test [3] has as its target T2, Human β-tubulin (TBB5) (human, UniProt P07437 1-444). Briefly: cross-linking.
Test [4] addresses T2, Human β-tubulin (TBB5). Briefly: native gel or EMSA.

T1 sequence (P68363 whole entry): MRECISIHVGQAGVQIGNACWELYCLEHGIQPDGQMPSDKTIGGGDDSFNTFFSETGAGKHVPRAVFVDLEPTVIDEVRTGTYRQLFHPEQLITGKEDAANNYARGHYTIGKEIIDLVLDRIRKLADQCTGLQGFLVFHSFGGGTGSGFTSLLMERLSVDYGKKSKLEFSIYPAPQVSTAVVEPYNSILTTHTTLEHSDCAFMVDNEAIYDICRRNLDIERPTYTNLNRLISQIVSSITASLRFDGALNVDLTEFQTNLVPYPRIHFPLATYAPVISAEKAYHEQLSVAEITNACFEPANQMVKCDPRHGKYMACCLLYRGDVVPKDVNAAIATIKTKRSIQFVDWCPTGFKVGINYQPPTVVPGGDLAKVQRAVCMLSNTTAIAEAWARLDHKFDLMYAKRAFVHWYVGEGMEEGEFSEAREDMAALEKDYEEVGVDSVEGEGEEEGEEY
T2 sequence (P07437 whole entry): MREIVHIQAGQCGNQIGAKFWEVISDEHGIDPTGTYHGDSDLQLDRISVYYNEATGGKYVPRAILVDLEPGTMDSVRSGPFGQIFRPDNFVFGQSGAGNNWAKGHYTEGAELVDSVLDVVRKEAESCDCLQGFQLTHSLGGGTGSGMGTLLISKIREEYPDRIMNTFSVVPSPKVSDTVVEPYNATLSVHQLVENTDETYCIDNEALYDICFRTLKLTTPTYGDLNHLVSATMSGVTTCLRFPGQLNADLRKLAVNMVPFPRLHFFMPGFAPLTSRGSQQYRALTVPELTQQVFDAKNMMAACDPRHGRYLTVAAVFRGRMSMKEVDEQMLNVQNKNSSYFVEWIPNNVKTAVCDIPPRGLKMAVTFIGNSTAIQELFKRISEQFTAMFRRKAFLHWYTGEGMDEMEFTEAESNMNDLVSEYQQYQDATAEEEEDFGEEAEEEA

B1: TBCB (natural protein, UniProt Q99426 1-244, looked up)
chain: MEVTGVSAPTVTVFISSSLNTFRSEKRYSRSLTIAEFKCKLELLVGSPASCMELELYGVDDKFYSKLDQEDALLGSYPVDDGCRIHVIDHSGARLGEYEDVSRVEKYTISQEAYDQRQDTVRSFLKRSKLGRYNEEERAQQEAEAAQRLAEEKAQASSIPVGSRCEVRAAGQSPRRGTVMYVGLTDFKPGYWIGVRYDEPLGKNDGSVNGKRYFECQAKYGAFVKPAVVTVGDFPEEDYGLDEI
For B1, the binding result in the test with Human α-tubulin (TUBA1B) [1] is on record as “binds”.

B2: PFD1, subunit of human Prefoldin (natural protein)
chain: MAAPVDLELKKAFTELQAKVIDTQQKVKLADIQIEQLNRTKKHAHLTDTEIMTLVDETNMYEGVGRMFILQSKEAIHSQLLEKQKIAEEKIKELEQKKSYLERSVKEAEDNIREMLMARRAQ
For the molecule B2, the binding result with Human α-tubulin (TUBA1B) [2] and in the test with Human β-tubulin (TBB5) [3] was “binds” in each case.

B3: TBCA (natural protein, UniProt O75347 1-108, looked up)
chain: MADPRVRQIKIKTGVVKRLVKEKVMYEKEAKQQEEKIEKMRAEDGENYDIKKQAEILQESRMMIPDCQRRLEAAYLDLQRILENEKDLEEAEEYKEARLVLDSVKLEA
On to B3, for which, in the test with Human β-tubulin (TBB5) [4], the binding result is given as “binds”.

B4: PFD3, subunit of human Prefoldin (natural protein)
chain: MAAVKDSCGKGEMATGNGRRLHLGIPEAVFVEDVDSFMKQPGNETADTVLKKLDEQYQKYKFMELNLAQKKRRLKGQIPEIKQTLEILKYMQKKKESTNSMETRFLLADNLYCKASVPPTDKVCLWLGANVMLEYDIDEAQALLEKNLSTATKNLDSLEEDLDFLRDQFTTTEVNMARVYNWDVKRRNKDDSTKNKA
As for B4, the binding result with Human α-tubulin (TUBA1B) [2] and in the test with Human β-tubulin (TBB5) [3] was “binds” each time.

(Values after PMC9735246 (Cell, 2022).)
